Measured values reported in publication PMC12148432, “Discovery and biochemical characterization of the D-aspartyl endopeptidase activity of the serine protease LACTB [drawing 1]” (The Journal of Biological Chemistry, 2025).

Substrate: Cc1cc(=O)oc2cc(NC(=O)[C@@H](CC(=O)O)NC(=O)CCC(=O)O)ccc12
Experiment: AMC fluorescence, kinetic plate-reader assay, initial rates
Assay type: biochemical, Homo sapiens
Details: pH 8.0, 30 °C, Tris-HCl, 150 mM NaCl

B1: 6His-SUMO1-hLACTB (97–547) (hLACTB WT) (Homo sapiens) (protein)
chain: APPCSRCFARAIESSRDLLHRIKDEVGAPGIVVGVSVDGKEVWSEGLGYADVENRVPCKPETVMRIASISKSLTMVALAKLWEAGKLDLDIPVQHYVPEFPEKEYEGEKVSVTTRLLISHLSGIRHYEKDIKKVKEEKAYKALKMMKENVAFEQEKEGKSNEKNDFTKFKTEQENEAKCRNSKPGKKKNDFEQGELYLREKFENSIESLRLFKNDPLFFKPGSQFLYSTFGYTLLAAIVERASGCKYLDYMQKIFHDLDMLTTVQEENEPVIYNRARFYVYNKKKRLVNTPYVDNSYKWAGGGFLSTVGDLLKFGNAMLYGYQVGLFKNSNENLLPGYLKPETMVMMWTPVPNTEMSWDKEGKYAMAWGVVERKQTYGSCRKQRHYASHTGGAVGASSVLLVLPEELDTETINNKVPPRGIIVSIICNMQSVGLNSTALKIALEFDKDRSD
notes: residues 97-547 (putative catalytic domain), N-terminal 6His-SUMO1 fusion kept, expressed in Escherichia coli, Ni-NTA and size-exclusion purified
B1 was tested, and the Km was 25.3 ± 2.7 µM and the kcat was 6.02 ± 0.12 s⁻¹.
